Values quoted from earlier work, collected in PMC2884063.

Biological target: Importin β (Homo sapiens) (UniProt Q14974)
Sequence of UniProt Q14974 (Q14974 whole entry): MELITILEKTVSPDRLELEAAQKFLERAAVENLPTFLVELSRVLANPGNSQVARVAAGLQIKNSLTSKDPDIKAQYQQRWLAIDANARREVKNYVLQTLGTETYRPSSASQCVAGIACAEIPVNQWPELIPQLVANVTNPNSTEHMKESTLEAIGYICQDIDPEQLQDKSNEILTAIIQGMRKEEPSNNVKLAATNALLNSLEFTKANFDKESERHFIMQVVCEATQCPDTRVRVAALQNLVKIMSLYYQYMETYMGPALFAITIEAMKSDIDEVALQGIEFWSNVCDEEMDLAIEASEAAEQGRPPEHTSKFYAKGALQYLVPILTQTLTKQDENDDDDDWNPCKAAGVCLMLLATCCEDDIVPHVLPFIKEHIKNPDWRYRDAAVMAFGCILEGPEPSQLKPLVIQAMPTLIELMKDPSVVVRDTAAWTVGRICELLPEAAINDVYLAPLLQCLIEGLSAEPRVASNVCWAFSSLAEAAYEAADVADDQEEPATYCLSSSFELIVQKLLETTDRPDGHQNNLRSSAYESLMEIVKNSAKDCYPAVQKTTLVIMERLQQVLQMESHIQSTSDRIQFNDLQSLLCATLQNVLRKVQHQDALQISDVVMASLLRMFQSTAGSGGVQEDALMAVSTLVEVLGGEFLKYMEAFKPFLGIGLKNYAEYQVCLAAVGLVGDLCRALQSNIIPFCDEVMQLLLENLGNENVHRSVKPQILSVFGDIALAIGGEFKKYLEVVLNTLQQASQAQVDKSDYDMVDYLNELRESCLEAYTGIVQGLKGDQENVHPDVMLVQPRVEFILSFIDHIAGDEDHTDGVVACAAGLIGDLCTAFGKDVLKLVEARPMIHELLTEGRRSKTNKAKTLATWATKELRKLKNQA

For “Snp1 (snurportin 1) IBB (from UniProt O95149)”, the Kd is given as 2 nM.
